Results from US20260144882A1 (BIO THERA SOLUTIONS, published 2026).
Residue numbers refer to the chain shown, from its start.

B1: 1F3-1G5 scFv (scFv, V domains shown)
VH: EVQLVESGGGLVQPGGSLRLSCAASGFSFGSYGMSWVRQAPGKGLEWVSGIKPSTSTTYYADSVKGRFTISRDNSKNTLYLQMNSLRAEDTAVYYCARAELLAFDVYTASDYWGQGTLVTVSS
VL: DIQMTQSPSSLSASVGDRVTITCRASQGISSYLAWYQQKPGKAPKLLIYAASSLQSGVPSRFSGSGSGTDFTLTISSLQPEDFATYYCQQHYTTPPTFGQGTKVEIKR
notes: phage clone supernatant
B2: 1F3-2E8 scFv (scFv, V domains shown)
VH: B1 VH with F27Y, G30S, S31D, G50W, K52S, T55K, S56G, T57S, T58A, Y59S
VL: B1 VL
notes: phage clone supernatant
B3: 1F3-1C11 scFv (scFv, V domains shown)
VH: B1 VH with S28N, G30S, G50A, K52S, P53G, T55G, S56G, T57S
VL: B1 VL
notes: phage clone supernatant
B4: 1F3-1F4 scFv (scFv, V domains shown)
VH: EVQLVESGGGLVQPGGSLRLSCAASGDIFTGSSMSWVRQAPGKGLEWVSGIYASGSDKRYADSVKGRFTISRDNSKNTLYLQMNSLRAEDTAVYYCARAELLAFDVYTASDYWGQGTLVTVSS
VL: B1 VL
notes: phage clone supernatant
B5: 1F3-2E12 scFv (scFv, V domains shown)
VH: B1 VH with F27G, S28N, G30T, S31N, Y32S, P53W, T55S, S56D, T57E
VL: B1 VL
notes: phage clone supernatant
B6: 1F3-1D12 scFv (scFv, V domains shown)
VH: B4 VH with D27Y, I28N, G31D, S32Y, S33G, Y52S, A53G, S56D, D57N, R59Y
VL: B1 VL
notes: phage clone supernatant
B7: 1F3-1B1 scFv (scFv, V domains shown)
VH: B1 VH with S28T, S31T, S54G, T55D
VL: B1 VL
notes: phage clone supernatant
B8: 1F3-1E9 scFv (scFv, V domains shown)
VH: B1 VH with S28T, G30D, S31D, G33A, T55S, S56W
VL: B1 VL
notes: phage clone supernatant
B9: 1F3-1F8 scFv (scFv, V domains shown)
VH: B1 VH with S28N, S31N, G50R, K52S, P53G, S54D, T55G, T57N, T58I, Y59N
VL: B1 VL
notes: phage clone supernatant
B10: 1F3-1G2 scFv (scFv, V domains shown)
VH: EVQLVESGGGLVQPGGSLRLSCAASGYTFGDYGMSWVRQAPGKGLEWVSRIDPWGASIRYADSVKGRFTISRDNSKNTLYLQMNSLRAEDTAVYYCARAELLAFDVYTASDYWGQGTLVTVSS
VL: B1 VL
notes: phage clone supernatant
B11: 1F3-1E1 scFv (scFv, V domains shown)
VH: B1 VH with G30D, S31D, G33A, G50I, K52Y, S54T, T55G, T58N
VL: B1 VL
notes: phage clone supernatant
B12: 1F3-2A12 scFv (scFv, V domains shown)
VH: B1 VH with F27Y, G30D, S54T, T55G, S56A, T57S
VL: B1 VL
notes: phage clone supernatant
B13: 1F3-1G7 scFv (scFv, V domains shown)
VH: B4 VH with T30S, G31N, S32Y, A53P, S56D, D57S, K58R
VL: B1 VL
notes: phage clone supernatant
B14: 1F3-2C6 scFv (scFv, V domains shown)
VH: B4 VH with G31N, S32Y
VL: B1 VL
notes: phage clone supernatant
B15: 1F3-2D2 scFv (scFv, V domains shown)
VH: B1 VH with S28N, G30S, G50R, K52S, S54Y, S56G, Y59H
VL: B1 VL
notes: phage clone supernatant
B16: 1F3-1D6 scFv (scFv, V domains shown)
VH: B4 VH with D27G, I28S, T30Y, S32F, S33G, A53S, S54H, G55D, S56A
VL: B1 VL
notes: phage clone supernatant
B17: 1F3-1G11 scFv (scFv, V domains shown)
VH: B1 VH with F27Y, G30T, S31G, K52S, T55G, S56G, T58I, Y59G
VL: B1 VL
notes: phage clone supernatant
B18: 1F3-1H3 scFv (scFv, V domains shown)
VH: B1 VH with S28N, G30Y, S31N, S54H, T55S, S56D, T57V, T58A, Y59H
VL: B1 VL
notes: phage clone supernatant
B19: 1F3-2C9 scFv (scFv, V domains shown)
VH: B1 VH with S28N, S31G, G50R, K52S, S54G, T55D, T58P, Y59R
VL: B1 VL
notes: phage clone supernatant
B20: 1F3-2B1 scFv (scFv, V domains shown)
VH: B1 VH with F27Y, S28N, G30D, S31N, G33A, S54D, T55S, S56A
VL: B1 VL
notes: phage clone supernatant
B21: 1F3-2B9 scFv (scFv, V domains shown)
VH: B1 VH with S28N, G30D, G33A, S54H, S56D, T57D, T58I
VL: B1 VL
notes: phage clone supernatant
B22: 1F3-1D1 scFv (scFv, V domains shown)
VH: B4 VH with G31N, S32Y, A53P, S56D, D57N, K58N
VL: B1 VL
notes: phage clone supernatant
B23: 1F3-1C4 scFv (scFv, V domains shown)
VH: B1 VH with S28T, S31D, S54W, T55G, T57G
VL: B1 VL
notes: phage clone supernatant
B24: 1F3-2B2-2 scFv (scFv, V domains shown)
VH: B10 VH with T28S, G30S, Y32F, W54S, A56W, I58T, R59S
VL: B1 VL
notes: phage clone supernatant
B25: 1F3-1E10 scFv (scFv, V domains shown)
VH: B1 VH with S28N, G30S, G50R, K52S, S54Y, S56D, T57N, T58K
VL: B1 VL
notes: phage clone supernatant
B26: 1F3-2B2 scFv (scFv, V domains shown)
VH: B10 VH with T28N, G30Y, D31S, R50I, D52S, W54D, A56G, S57Y, I58K
VL: B1 VL
notes: phage clone supernatant
B27: 1F3-1E4 scFv (scFv, V domains shown)
VH: B10 VH with Y27F, T28S, D31T, D52S, P53G, W54D, G55S, S57N
VL: B1 VL
notes: phage clone supernatant
B28: 1F3-1A9 scFv (scFv, V domains shown)
VH: B10 VH with T28S, G30D, D31N, G33A, D52S, W54T, A56G, S57Y, I58A, R59S
VL: B1 VL
notes: phage clone supernatant
B29: 1F3-2A11 scFv (scFv, V domains shown)
VH: EVQLVESGGGLVQPGGSLRLSCAASGDNFYTFYMSWVRQAPGKGLEWVSGIKPTGSYINYADSVKGRFTISRDNSKNTLYLQMNSLRAEDTAVYYCARAELLAFDVYTASDYWGQGTLVTVSS
VL: B1 VL
notes: phage clone supernatant
B30: 1F3-2D8 scFv (scFv, V domains shown)
VH: B10 VH with T28S, G30S, D52S, W54S, G55K, S57V, I58K, R59D
VL: B1 VL
notes: phage clone supernatant
B31: 1F3-1H11 scFv (scFv, V domains shown)
VH: B10 VH with Y27F, T28N, G30T, D52S, P53Q, A56D, S57T, I58S, R59N
VL: B1 VL
notes: phage clone supernatant

The binders below were run against T1, human Nectin-4 extracellular antigen hNectin-4-His (human, UniProt Q96NY8 32-349) (assay: ELISA, phage scFv supernatant 1:50).
T1 construct: C-terminal 8xHis tag included
T1 sequence: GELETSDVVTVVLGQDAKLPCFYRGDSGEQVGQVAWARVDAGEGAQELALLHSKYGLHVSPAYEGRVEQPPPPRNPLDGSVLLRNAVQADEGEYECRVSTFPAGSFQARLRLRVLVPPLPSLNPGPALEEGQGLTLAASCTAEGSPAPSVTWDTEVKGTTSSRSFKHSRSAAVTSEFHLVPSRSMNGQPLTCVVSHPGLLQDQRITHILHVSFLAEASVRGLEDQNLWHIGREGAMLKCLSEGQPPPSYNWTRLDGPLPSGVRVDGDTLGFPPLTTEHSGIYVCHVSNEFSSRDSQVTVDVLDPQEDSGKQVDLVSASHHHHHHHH
Method: The supernatants were diluted 50-fold, and the binding OD values of the diluted supernatants to hNectin-4-His were measured by ELISA. The samples were serially 3-fold diluted, and the EC₅₀ titer for the binding of the supernatants to the antigen was measured by ELISA. […] The light chain variable region sequence is set forth in SEQ ID NO: 25. The OD value is the measurement of ELISA, and the EC₅₀ value denotes the EC₅₀ value of the binding activity titer of the supernatant to the antigen.

Question: Which OD value does the source give for B1 here?
Answer: The OD value was 1.56 OD.

Question: Which OD value does the source give for B2 here?
Answer: The OD value was 1.56 OD.

Question: With B3 as the binder, how does the OD value read?
Answer: Its OD value is 1.63 OD.

Question: For B4, which OD value is on record?
Answer: The OD value was 1.42 OD.

Question: How did the OD value turn out when B5 was run?
Answer: Its OD value is 1.52 OD.

Question: For B6, which OD value is on record?
Answer: Its OD value is 1.63 OD.

Question: How did the OD value turn out when B7 was run?
Answer: Its OD value is 1.65 OD.

Question: With B8 as the binder, how does the OD value read?
Answer: Its OD value is 1.55 OD.

Question: For B9, which OD value is on record?
Answer: The OD value was 1.67 OD.

Question: Which OD value does the source give for B10 here?
Answer: The OD value was 1.6 OD.

Question: For B11, which OD value is on record?
Answer: Its OD value is 1.64 OD.

Question: For B12, which OD value is on record?
Answer: The OD value was 1.65 OD.

Question: For B13, which OD value is on record?
Answer: The OD value was 1.56 OD.

Question: Which OD value does the source give for B14 here?
Answer: Its OD value is 1.38 OD.

Question: With B15 as the binder, how does the OD value read?
Answer: The OD value was 1.59 OD.

Question: B16 was tested. Which OD value did it give?
Answer: The OD value was 1.44 OD.

Question: How did the OD value turn out when B17 was run?
Answer: Its OD value is 1.65 OD.

Question: Which OD value does the source give for B18 here?
Answer: The OD value was 1.73 OD.

Question: How did the OD value turn out when B19 was run?
Answer: Its OD value is 1.59 OD.

Question: With B20 as the binder, how does the OD value read?
Answer: The OD value was 1.62 OD.

Question: With B21 as the binder, how does the OD value read?
Answer: The OD value was 1.57 OD.

Question: Which OD value does the source give for B22 here?
Answer: Its OD value is 1.29 OD.

Question: For B23, which OD value is on record?
Answer: The OD value was 1.59 OD.

Question: How did the OD value turn out when B24 was run?
Answer: The OD value was 1.59 OD.

Question: Which OD value does the source give for B25 here?
Answer: Its OD value is 1.54 OD.

Question: B26 was tested. Which OD value did it give?
Answer: The OD value was 1.57 OD.

Question: Which OD value does the source give for B27 here?
Answer: Its OD value is 1.61 OD.

Question: With B28 as the binder, how does the OD value read?
Answer: The OD value was 1.64 OD.

Question: How did the OD value turn out when B29 was run?
Answer: Its OD value is 1.52 OD.

Question: For B30, which OD value is on record?
Answer: The OD value was 1.56 OD.

Question: How did the OD value turn out when B31 was run?
Answer: The OD value was 1.65 OD.
